Substrate in series [1]: O=C(O)CC(=O)C(=O)O
Briefly: purified protein. To be noted: 100 μM NADH, 0.1 M phosphate pH 7.5, 0.1 M KCl, 24 °C.

Substrate in series [2]: NC(=O)C1=CN([C@@H]2O[C@H](COP(=O)(O)OP(=O)(O)OC[C@H]3O[C@@H](n4cnc5c(N)ncnc54)[C@H](O)[C@@H]3O)[C@@H](O)[C@H]2O)C=CC1
The series can be described thus: purified protein. Particulars: 150 μM oxaloacetate, 0.1 M phosphate pH 7.5, 0.1 M KCl, 24 °C.

B1: recombinant MDH-2 (Caenorhabditis elegans) (protein)
chain: SQAPKVALLGAAGGIGQPLGLLLKQDPLVAHLALYDVVNTPGVAADLSHIDSNAKVTAHTGPKELYAAVENADVIVIPAGVPRKPGMTRDDLFNTNAGIVRDLAAVIAKASPKALIAIITNPVNSTVPIASEVLKKAGVYDPKRVFGVTTLDVVRSQAFVSELKGHDASKTVVPVVGGHAGITIIPLLSQVKPSTKFSEEEISKLTPRIQDAGTEVVNAKAGAGSATLSMALAGARFANALVRGIKGEKNVQCAYVASDAVKGVEYFSTPVELGPNGVEKILGVGKVSAYEQKLIDASVPELNKNIAKGVAFVKGN
Take B1: the Michaelis constant (Km) in series [1] came out at 52 ± 4 µM.

B2: endogenous MDH-2 (Caenorhabditis elegans) (protein)
chain: SQAPKVALLGAAGGIGQPLGLLLKQDPLVAHLALYDVVNTPGVAADLSHIDSNAKVTAHTGPKELYAAVENADVIVIPAGVPRKPGMTRDDLFNTNAGIVRDLAAVIAKASPKALIAIITNPVNSTVPIASEVLKKAGVYDPKRVFGVTTLDVVRSQAFVSELKGHDASKTVVPVVGGHAGITIIPLLSQVKPSTKFSEEEISKLTPRIQDAGTEVVNAKAGAGSATLSMALAGARFANALVRGIKGEKNVQCAYVASDAVKGVEYFSTPVELGPNGVEKILGVGKVSAYEQKLIDASVPELNKNIAKGVAFVKGN
In the case of B2, the Km in series [1] was 42 ± 2 µM.

B3: recombinant MDH-1 (Caenorhabditis elegans) (protein)
chain: MSAPLRVLVTGAAGQIGYSIVIRIADGTVFGKEQPVELVLLDVPQCSNILEGVVFELQDCALPTLFSVVAVTDEKSAFTGIDYAFLVGAMPRREGMERKDLLAANVKIFKSQGKALAEYAKPTTKVIVVGNPANTNAFIAAKYAAGKIPAKNFSAMTRLDHNRALAQLALKTGTTIGNVKNVIIWGNHSGTQFPDVTHATVNKNGTETDAYAAVGDNAFLQGPFIATVQKRGGVIIEKRKLSSAMSAAKAACDHIHDWHFGTKAGQFVSMAVPSDGSYGIPQGLIFSFPVTIEGGEWKIVQGLSFDDFAKGKIAATTKELEEERDDALKACDDANI
For B3, the results for the Michaelis constant (Km) in series [1] and in series [2] were 54 ± 4 µM and 61 ± 6 µM, respectively.

B4: endogenous MDH-1 (Caenorhabditis elegans) (protein)
chain: MSAPLRVLVTGAAGQIGYSIVIRIADGTVFGKEQPVELVLLDVPQCSNILEGVVFELQDCALPTLFSVVAVTDEKSAFTGIDYAFLVGAMPRREGMERKDLLAANVKIFKSQGKALAEYAKPTTKVIVVGNPANTNAFIAAKYAAGKIPAKNFSAMTRLDHNRALAQLALKTGTTIGNVKNVIIWGNHSGTQFPDVTHATVNKNGTETDAYAAVGDNAFLQGPFIATVQKRGGVIIEKRKLSSAMSAAKAACDHIHDWHFGTKAGQFVSMAVPSDGSYGIPQGLIFSFPVTIEGGEWKIVQGLSFDDFAKGKIAATTKELEEERDDALKACDDANI
For B4, in series [1], the Km was 50 ± 4 µM.

These data come from publication doi:10.1101/2021.07.08.451529v1.
